Target: T1, cynomolgus monkey FcγRIIIaS extracellular domain with C-terminal His-tag (cynomolgus monkey, UniProt Q8SPW2 21-206 at identity 1.00))
T1 construct: also called cyno FcgRIIIaS; cynoFcγRIIIaS
T1 chain: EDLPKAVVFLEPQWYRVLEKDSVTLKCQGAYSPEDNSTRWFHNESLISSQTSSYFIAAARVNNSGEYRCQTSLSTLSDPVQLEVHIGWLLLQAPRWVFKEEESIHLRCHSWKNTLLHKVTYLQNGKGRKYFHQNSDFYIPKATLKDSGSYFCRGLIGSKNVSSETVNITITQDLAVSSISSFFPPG
Test: SPR (BIACORE), antibody captured, FcgR analyte

Kd: 360 nM
B1: MS_M103205H795-SG1/M103202L889-SK1 (antibody, human IgG1, kappa)
heavy: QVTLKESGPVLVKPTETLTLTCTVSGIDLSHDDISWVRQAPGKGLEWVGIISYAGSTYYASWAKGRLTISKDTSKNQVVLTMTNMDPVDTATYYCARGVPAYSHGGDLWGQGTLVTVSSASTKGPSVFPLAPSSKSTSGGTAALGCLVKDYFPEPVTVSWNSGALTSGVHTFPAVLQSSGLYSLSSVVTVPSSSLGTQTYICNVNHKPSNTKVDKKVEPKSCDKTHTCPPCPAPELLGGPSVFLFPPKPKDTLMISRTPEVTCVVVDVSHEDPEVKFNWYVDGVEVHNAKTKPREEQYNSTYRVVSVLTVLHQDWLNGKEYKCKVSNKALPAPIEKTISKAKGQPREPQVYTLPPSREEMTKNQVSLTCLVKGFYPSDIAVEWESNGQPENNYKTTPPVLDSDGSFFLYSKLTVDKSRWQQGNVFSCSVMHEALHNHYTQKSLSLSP
light: DIVMTQSPATLSLSPGERATLSCTSSQSVYHANWLSWFQQKPGQPPKLLIYWASTLAYGVPSRFSGSGSGTDFTLTISSLQPEDAATYYCAGGYGGGRYAFGQGTKVEIKRTVAAPSVFIFPPSDEQLKSGTASVVCLLNNFYPREAKVQWKVDNALQSGNSQESVTEQDSKDSTYSLSSTLTLSKADYEKHKVYACEVTHQGLSSPVTKSFNRGEC
notes: Parent antibody of the Fc variants; also called MS1032LO06-SG1

Reference: patent publication US20200317768A1 (published 2020)
